Experimental data reported in patent US10921309 (dated 2021).

Assays:
[1] = biological target: T1, OBn(GGS)2t-FhuA (barnase nanopore sensor) (Bacillus amyloliquefaciens / E. coli); experiment: other, single-molecule nanopore
T1 chain: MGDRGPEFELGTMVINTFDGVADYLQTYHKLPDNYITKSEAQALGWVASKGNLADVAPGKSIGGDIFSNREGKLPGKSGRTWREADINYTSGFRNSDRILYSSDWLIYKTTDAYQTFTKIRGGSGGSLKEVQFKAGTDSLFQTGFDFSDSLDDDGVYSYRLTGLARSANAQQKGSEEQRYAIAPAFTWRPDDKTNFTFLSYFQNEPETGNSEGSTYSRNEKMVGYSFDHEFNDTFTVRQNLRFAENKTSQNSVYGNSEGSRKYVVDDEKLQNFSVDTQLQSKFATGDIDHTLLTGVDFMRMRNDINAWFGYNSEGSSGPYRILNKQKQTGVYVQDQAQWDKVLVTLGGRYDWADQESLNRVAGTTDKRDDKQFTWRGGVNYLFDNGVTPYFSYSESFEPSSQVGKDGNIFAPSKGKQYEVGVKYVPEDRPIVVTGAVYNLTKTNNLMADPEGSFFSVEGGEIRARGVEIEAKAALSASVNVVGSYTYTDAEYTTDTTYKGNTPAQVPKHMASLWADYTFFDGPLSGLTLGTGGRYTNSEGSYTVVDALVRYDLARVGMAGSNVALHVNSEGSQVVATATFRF

[2] = biological target: T1, OBn(GGS)2t-FhuA (barnase nanopore …); experiment: other, single-molecule nanopore, 300 mM KCl, pH 8
[3] = biological target: T1, OBn(GGS)2t-FhuA (barnase nanopore …); experiment: other, single-molecule nanopore, high Bs concentration

Kd [1]: 61 nM
Kd [2]: 64 nM
Kd [3]: 82 nM
B1: Barstar (Bs) (protein)
chain: MKKAVINGEQIRSISDLHQTLKKELALPEYYGENLDALWDALTGWVEYPLVLEWRQFEQSKQLTENGAESVLQVFREAKAEGADITIILS
